Laboratory results reported in US10370443B2, “Method of treating autoimmune disease by administering antibodies to interleukin-6” (Fountain Biopharma Inc., priority 2012, dated 2019).
Entries after “also recorded” stand apart in the source; their conditions may differ.

Columns and labels:
[1] = tested on: BxPC-3 tumor; experiment: Xenograft human pancreatic tumor model; type: in vivo, mice; conditions: BxPC-3 tumor sections, FIGS. 6E and 6F
Method: (iv) Xenograft Human Pancreatic Tumor Model Human pancreatic tumor cells BxPC-3 and MiaPaCa cells were re-suspended in PBS and injected subcutaneously (s.c.) (5×10^6 cells, total volume 0.15 mL) into the right flank of mice. […] Mice body weights and the tumor sizes were measured twice a week. Tumor sizes were measured using a caliper, and the tumor volume was calculated by […]. After the experiment, all mice were sacrificed, mice blood samples were collected and the tumor masses were removed and weighted. The differences in mean tumor volume and tumor weight were evaluated by Student's t-test. […] Results (i) FB704 Inhibits In Vivo Angiogenesis in a Matrigel Assay
FB704 enhanced the anti-tumor activity of Oxaliplatin or Gemcitabine in a human pancreatic cancer model.

[2] = tested on: IL6-induced phosphorylated STAT3 in U266 cells; experiment: Cell signaling transduction assay (P-STAT3 western blot); type: cell-based, human; conditions: for STAT3 phosphorylation inhibition percentage of control: rhIL6; for suppression of phosphorylated-STAT3 signaling: western blot, FIG. 1A/1B
Method: U266 cells (1×10^6/ml) were washed twice with serum-free RPMI 1640 and cultured for 2 h in the absence of fetal bovine serum and growth factors. Cells were stimulated with rhIL6 (5 ng/ml) for 30 min at 37° C. and then treated with or without anti-IL6 antibodies. Cells were washed with ice-cold PBS, and then lysed in RIPA buffer (Thermo) supplemented with protease and phosphatase inhibitor (Roche). Western blot analysis was performed using anti-pSTAT3, and anti-STAT3 (Cell Signaling Technology) antibodies. After incubating with HRP-labeled goat anti-rabbit (Thermo) or HRP-labeled goat anti-mouse antibody (Thermo), the membranes were developed by enhanced chemiluminescence (GE Healthcare).
Human multiple myeloma U266 cells were used to examine the effect of anti-IL6 antibodies on IL6-induced signaling cascade. U266 cells were cultured in the presence or absent of antibodies, together with rhIL6. After 30 minutes, whole cell lysates were collected and western blot analysis was performed to examine phosphorylated STAT3 protein (P-STAT3), which is a major transcription factor involved in the IL6 signaling pathway. […] (FIGS. 1A and 1B).

[3] = tested on: human prostate cancer PC-3 cell; experiment: Prostate PC3 tumor metastasis and cachexia, intrasplenic implantation model; conditions: for total body weights (cachexia): day 31 after PC-3 implantation, 20 mg/kg i.v. twice a week, P<0.01; for symptom-free survival of PC3 tumor-bearing mice: repetitive injections, Kaplan-Meier, FIG. 5B
Method: The body weights of those mice were measured twice a week.
All mice were then euthanized by CO2 asphyxiation and body weights were determined. Primary tumors in the spleen and liver were excised, photographed, and weighed. Organ index was expressed as milligram organ per gram mouse. Mean+SD were calculated using Student's t-test. The survival assay was used Kaplan-Meier analysis. Paraffin-embedded or frozen section of tumor masses were prepared and stained by anti-CD31 and Ki-67 plus Hematoxylin staining for analysis.
To verify the efficacy of FB704 on cancer induced cachexia and metastasis, mice were implanted with human prostate cancer PC-3 cell (1.0×10^6 per mouse) by intrasplenic injection. On day 1, the mice were randomized into 4 groups (n=12-15). High (20 mg/kg) and low (5 mg/kg) dose of FB704, positive control Actemra (20 mg/kg) and PBS were administered via i.v. (intravenous) injection twice a week.

[4] = molecular target: T1, recombinant human IL6 (Homo sapiens, UniProt P05231); experiment: BIAcore analysis of IgG binding affinity; conditions: for Ka: association rate constant, captured IgG, BIAcore T200; for Kd: dissociation rate constant
T1 construct: purchased R&D Systems
T1 sequence (P05231 30-212): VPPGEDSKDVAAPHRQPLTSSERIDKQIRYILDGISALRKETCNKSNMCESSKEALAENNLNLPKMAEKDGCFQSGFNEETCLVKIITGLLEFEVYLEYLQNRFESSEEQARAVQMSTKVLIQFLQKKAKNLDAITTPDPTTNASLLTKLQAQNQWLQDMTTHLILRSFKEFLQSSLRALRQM
Method: IgG binding affinity was measured by using human antibody capture kit (GE healthcare) in BIAcore T200 system (GE healthcare). The mouse anti-human IgG was immobilized on a CMS sensor chip via amine coupling. Approximately 700 RU of purified anti-IL6 IgG in HBS-EP+ buffer were captured onto the immobilized surface. The recombinant human IL6 (R&D Systems) at concentrations ranging from 25.6 nM to 0.4 nM in HBS-EP+ buffer was injected for 2 minutes using a flow rate of 30 μl/min. Dissociation of bound antigen in HBS^−EP^+ buffer flow was followed for 7 minutes. The surfaces IgG were regenerated after each cycle using regeneration solution (3M MgCl2). The dissociation constant (KD) was calculated as kd/ka.

[5] = tested on: hIL6-induced angiogenesis; experiment: Matrigel angiogenesis assay; type: in vivo, mice; conditions: listed as FB704
Method: Liquid matrigel (BD Biosciences) was maintained at 4° C. hIL6 recombinant protein (R&D Systems) was added to Matrigel to a final concentration of 100 ng/0.5 ml. […] Then, the mice were treated with anti-IL6 IgG antibodies or a control IgG antibody through intravenous injection. On day 6, the mice were euthanized by CO2 asphyxiation. Matrigel plugs were removed, weighed and photographed. To measure hemoglobin levels, the Matrigel plug was lysed with a lysis buffer (1% SDS, 0.5% Triton in PBS) overnight at 4° C. The hemoglobin contents of the plugs were quantitated using Drabkin's reagent (Sigma). The concentrations of hemoglobin in the plugs were determined using a standard curve of bovine hemoglobin (Sigma). Hemoglobin contents were indicated as micrograms hemoglobin per gram Matrigel. Mean+SD were calculated using the Student's unpaired t test; p<0.05 was considered as statistically significant.
The anti-angiogenic ability of FB704 was examined in an in vivo matrigel model as described herein. Six days after the treatment, the mice were scarified mice and hemoglobin concentrations were measured. […] (FIG. 4B).

[6] = tested on: IL6 plus sIL6R induced MCP-1 and sICAM-1 in HUVECs; experiment: MCP-1 and sICAM-1 production in HUVEC cells (ELISA); type: cell-based, human; conditions: 24 h; for inhibition of IL6+sIL6R induced MCP-1 secretion: FIG. 2A; for inhibition of sICAM-1 production: FIG. 2B
Method: To examine the effectiveness of the anti-IL6 antibodies described herein in treating rheumatoid arthritis (RA), monocyte chemotactic protein-1 (MCP-1) and sICAM-1 secretion by Human Umbilical Vein Endothelial Cells (HUVECs) were measured after antibody treatment as follows. The HUVEC cells were plated in a 48-well plate at a density of 2×10^5 cells/ml. The cells were treated with a combination of recombinant human IL6, IL6 receptor-α (R&D systems) with or without anti-IL6 antibodies at various concentrations or the control IgG antibody at 37° C. for 24 h. Cell free culture supernatants were collected and analysis for MCP-1 and sICAM-1 by ELISA (RayBiotech)

[7] = tested on: human IL6 and other cytokines (IL6 family and non-IL6 family); experiment: Specificity analysis ELISA on coated cytokines; type: binding; conditions: FIGS. 3A and 3B
Method: Plates were coated with recombinant human IL3, IL4, IL5, IL6, IL11, IL17A, CNTF, OSM, IGF-1 (R&D Systems), IL2, FGF (Prospec), VEGF, TNF-α, EGF (Peprotech) at 2 μg/ml in 0.1M NaHCO3 buffer at 4° C. overnight. After being washed by PBS, the wells were blocked with 1% (w/v) BSA in PBS at RT for 1 h. Purified anti-IL6 antibodies in four-fold serial dilutions at a starting concentration of 2 μg/ml were placed into the wells and incubated at RT for 1 h. The plate was washed in PBS containing 0.1% (w/v) Tween 20 and then probed with HRP-labeled goat anti-human IgG (KPL) diluted 1:10,000 in 1% BSA-PBS for 40 min at RT. The plate was again washed and a TMB substrate solution was added to develop color. Stop solution (1M H2SO4) was then added and the absorption at 450 nm quantitated using VERSA max (Molecular Devices).
An ELISA assay as described herein was performed to confirm the binding specificity of high-affinity anti-IL6 antibodies described herein. Briefly, plates were coated with different cytokines as indicated in FIG. 3A (IL6 family cytokines) and FIG. 3B (non-IL6 family cytokines) and the binding activities of the FB704 antibody clone (i.e. Ag1-4-6) to those cytokines were examined.

[8] = tested on: IL6-induced MCP-1 in PBMC cells; experiment: MCP-1 production in human PBMC; type: cell-based; conditions: PBMC of five healthy donors, IL6 100 ng/ml, 24 h, FIG. 7B
Method: Further, PBMCs were isolated from five healthy donors. The cells (5×10^5 cells/250 μl/well) were cultured with IL6 (100 ng/ml) for 24 h in a 96-well U-bottomed culture plates (Corning, Corning, N.Y.) containing RPMI1640 in the presence of anti-IL6 antibodies at different concentrations. The levels of MCP-1 in the supernatant were measured by MCP-1 ELISA kits (e Bioscience).

Molecule | Ki-67 positive cell rate [1] [%] | total body weights (cachexia) [3] | dissociation rate constants (kd) [4] [s⁻¹] | Ka [4] [M⁻¹ s⁻¹] | Kd [4] [s⁻¹] | inhibition of IL6+sIL6R induced MCP-1 secretion [6] | inhibition of sICAM-1 production [6] | suppression of phosphorylated-STAT3 signaling [2] | suppression of MCP-1 production [8] | other results
O=C1[O][Pt]2([NH][C@@H]3CCCC[C@H]3[NH]2)[O]C1=O [Oxaliplatin, reference compound] | 14 |  |  |  |  |  |  |  |  | 
Actemra: anti-IL6 receptor humanized antibody, FDA-approved for rheumatoid arthritis, used as a control [reference compound] |  | remained stable |  |  |  |  |  |  |  | STAT3 phosphorylation inhibition percentage of control ([2]; Ab concentration 0.05 μg/ml): 0%; STAT3 phosphorylation inhibition percentage of control ([2]; Ab concentration 0.5 μg/ml): 17%; symptom-free survival of PC3 tumor-bearing mice [3]: significantly prolonged symptom-free survival
1-4-62: parent fully-human anti-IL6 antibody clone; HC CDR3 SEQ ID NO: 6, LC CDR3 SEQ ID NO: 13 (antibody, V domains shown) VH: EVQLVESGPALVKPTQTLTLTCTFSGFSLSTGGMSVSWIRQPPGKALEWLARIDWDDDKFYTPSLKTRLTISRDTSKNQVVLIMTNMDPVDTATYYCARMHIDDSNGYYSDAFHIWGQGTMVTVSS VL: EIVLTQSPATLSVSPGERVTLSCRDSQSVSSTSLAWYQQKSGQAPRLLIYDTSNRATGIPARFSGGGSGTDFTLTISSLEPEDFAVYYCLVRNNWPPRFTFGQGTKVEIK |  |  | 0.00166 | 438000 | 0.00166 |  |  |  |  | 
Ag1-4-6: affinity-matured fully-human anti-IL6 antibody; HC CDR3 SEQ ID NO: 6, LC CDR3 SEQ ID NO: 15 (antibody, V domains shown) VH: EVQLVESGPALVKPTQTLTLTCTFSGFSLSTGGMSVSWIRQPPGKALEWLARIDWDDDKFYTPSLKTRLTISRDTSKNQVVLIMTNMDPVDTATYYCARMHIDDSNGYYSDAFHIWGQGTMVTVSS VL: EIVLTQSPATLSVSPGERVTLSCRDSQSVSSTSLAWYQQKSGQAPRLLIYDTSNRATGIPARFSGGGSGTDFTLTISSLEPEDFAVYYCSFVSRPYPRFTFGQGTKVEIK | 16 | remained stable |  | 1.61e+06 | 0.00121 | in a dose dependent manner; also recorded: inhibited | in a dose dependent manner; also recorded: at a level greater than Actemra | at a level greater than Actemra; also recorded: suppressed the STAT3 signaling at a much greater level as compared to control antibody Actemra | inhibited MCP-1 production in a dose dependent manner | inhibition of IL6-induced angiogenesis in matrigel plugs ([5]; 6 days after treatment, FIG. 4A): observable difference in color and vessel density; also recorded: inhibited angiogenesis; hemoglobin concentrations in matrigel plugs ([5]; day 6, compared with hIL6, FIG. 4B): significantly reduced the hemoglobin concentrations; also recorded: significantly changed the hemoglobin concentrations; tumor cell infiltration in liver ([3]; gross necropsy, FIG. 5C): moderate tumor cell infiltration; vessel density / CD31 staining on tumor sections ([3]; immunohistochemistry, vs PBS, FIGS. 5D and 5E): significantly decreased; symptom-free survival of PC3 tumor-bearing mice ([3]; listed as FB704): significantly prolonged symptom-free survival; also recorded: significantly better efficacy than Actemra; also recorded: significant better efficacy than Actemra; binding activity to coated cytokines (specificity) [7]: high binding activity to human IL6 protein but not to other cytokines
HAg1T-3-10: affinity-matured fully-human anti-IL6 antibody; HC CDR3 SEQ ID NO: 16, LC CDR3 SEQ ID NO: 15 (antibody, V domains shown) VH: EVQLVESGPALVKPTQTLTLTCTFSGFSLSTGGMSVSWIRQPPGKALEWLARIDWDDDKFYTPSLKTRLTISRDTSKNQVVLIMTNMDPVDTATYYCARMHIDDSNGYFSDAFHIWGQGTMVTVSS VL: EIVLTQSPATLSVSPGERVTLSCRDSQSVSSTSLAWYQQKSGQAPRLLIYDTSNRATGIPARFSGGGSGTDFTLTISSLEPEDFAVYYCSFVSRPYPRFTFGQGTKVEIK |  |  | 0.0006 | 2.24e+06 | 0.0006 | in a dose dependent manner | in a dose dependent manner | at a level greater than Actemra | inhibited MCP-1 production in a dose dependent manner | inhibition of IL6+sIL6R induced MCP-1 secretion ([6]; listed as Hag1T-3-10): inhibited; inhibition of sICAM-1 production ([6]; listed as Hag1T-3-10): at a level greater than Actemra; suppression of phosphorylated-STAT3 signaling ([2]; listed as HAgT1-3-10): suppressed the STAT3 signaling at a much greater level as compared to control antibody Actemra
